In a protein production outcome set (Wang et al. 2014):

Test: label from the status in PepcDB records

Row | Sequence | protein production
1 | MSRKYFVGGNFKCNGTKESLKTLIDSFKQVESSNSEVYVFPTSLHISLVKEFFGNDHPGVFKIGSQNISCTGNGAFTGEVSCEMLKDMDVDCSLVGHSERRQYYSETDQIVNNKVKKGLENGLKIVLCIGESLSERETGKTNDVIQKQLTEALKDVSDLSNLVIAYEPIWAIGTGVVATPGQAQEAHAFIREYVTRMYNPQVSSNLRIIYGGSVTPDNCNELIKCADIDGFLVGGASLKPTFAKIIESAQ | not failed
2 | TPGRGSRVTDQGICPKHQEALKLFCEVDEEAICVVCRESRSHKQHSVVPL | not failed
3 | MDFDLSEEQRLLKESVEGLLKGSYDFDSRKKYAKEKGGWSRAVWGKFAEQGLLGLPFSEEDGGFGAGAVETMIVMEALGHSLVLEPYLPTVVIGGGFLRRAGSAAQKAAHLPGIIDGSKTFAFAQLEKNSRWDLGDVSTTAKKSGDGWVIDGEKFVVLNGEAADTLIVTARTKGGQRDRTGVGVFLVPADAKGITRKGYPTQDGLHAADITFTGVQVGADAAIGDPENALELIEAVVDDARTALCAEAVGLMDESLTTTVEYIKTRKQFGVPIGSFQVLQHRAADMFVATEQARSMAMFATMAAEFDDAKERAGAIAAAKVQIGKSGKFVGQQSIQLHGGIGMTMEAKIGHYFKRLTMIEQTFGDTDHHLARVSAGGGLI | not failed
4 | MSYLDNVRVFVRVVELGTLSAAGRDQRVTPAVASNRIKELERHMGVRLFNRTTRKLTPTEHGRVFYEGAVKILEAVNEAESAIADLSRNPKGALKITAPLGIGRRLIAPGIPEFHDRYPDIEVRLRLSDHNVDILAEGVDIAFKLGILEDSNLRMRGIMNCDRVLCGSPRYFERRGIPSSPDDLLSHSHDCLLLRYPGSKEYYWTLQTPDGVRKFEVGGPYDSDDGDVLTQWALDGRGIVNKPLFEVKQHIDEGLLVPVLEETPPLGAQLAAIYPHKRFQDPKVRLMIDFMAERCQRLIGKMLAESAEVQERSSA | failed
5 | HARKSLTVLVVGESARAENFGILGYGRNTTPNLNKENGLVAFTDVYSCGTETAVSVPCMFSNMGRKNYNATKARNQEGLLDVLKHAGIEVAWRDNQSGCKGTCDRVTFQDVSNLTDPLLCNSHECRDEILLQNLQGFIDSLDKDTVLVLHQMGSHGPEYYKRYPKEFEKFTPVCESNALNNCSRDSIVNAYDNTLLYTDHVLSTLIDLLRSNQAKVDTAMVYLSDHGESLGEYNLFLHGTPYVLAPDQQKHVPMLIWLSDTYQKSFAVTPDCLAKQRNAPLSQDNLFHSMLGLLKVDTKVY | failed
6 | MKNQLELIAESYDKGIDYGRRGISLYDDLPEYITNNPDYIIYKKTTESIEPSVYSGYKEIREYLSPTTNMKFIDLGCCLNLMFNGYDQWASTYHGVDISSKTIELLNEFSTNNKLHIGALICGSIHETPFDANYFDIGACIGVLEYYKKDFVEKALIEAHRIIKPGGKLVLDIPNIVSPACRGMILLEEHAGRTDQFDMLPLDFENMLCNYFEIEKVEKANAWAMFQYFLSCKK | failed
7 | MVTLCQVFGVHRSSYRYWKNRPEKPDGRRAVLRSQVLELHGISHGSAGARSIATMATRRGYQMGRWLAGRLMKELGLVSCQQPTHRYKRGGHEHVAMPKWVILYCRRWMEAPMQSCENGELITRTRGTPQGGVISPLLANLFLHYAFDLWMEREYRGVPFERYADDIVVHCSRMSDATRLKNRLSERFSEVGLVLNAGKTNIAYIDTFKRRNVATSFTFLGYDFKVRTLKNFKGERYRKCMPGASNAAMRKITETIKKWRIHRSTAESLLDFARRYNTIVRGWIEYYGKFWSRNFNYRLWSAMQSRLLKWMQSKYRLSNRKAQRKLTLVRKEYPKLFVHWYLLRASNE | failed
8 | MQNNSYGYAVSVRVGGKEHRHWERYDIDSDFLIPADSFDFVIGRLGPEAAIPDLSGESCEVVIDGQIVMTGIIGSQRHGKSKGSRELSLSGRDLAGFLVDCSAPQLNVKGMTVLDAAKKLAAPWPQIKAVVLKAENNPALGKIDIEPGETVWQALTHIANSVGLHPWLEPDGTLVVGGADYSSPPVATLCWSRTDSRCNIERMDIEWDTDNRFSEVTFLAQSHGRSGDSAKHDLKWVYKDPTMTLHRPKTVVVSDADNLAALQKQAKKQLADWRLEGFTLTITVGGHKTRDGVLWQPGLRVHVIDDEHGIDAVFFLMGRRFMLSRMDGTQTELRLKEDGIWTPDAYPKKAEAARKRKGKRKGVSHKGKKGGKKQAETAVFE | not failed
9 | MSQDGGQGRYAGRALAGGRYQLRDLLGEGGMASVHLAYDSVLDRQVAIKTLHTELGREQAFRERFRREAQAVAKLTHTNIVSVFDTGEDDLDGMTTPYIVMEYVEGRPLGSVLDEDVRQQGAMPADKALKITADVLAALEISHEMGLVHRDIKPGNVMMTKRGVVKVMDFGIARAMQSGVTSMTQTGMVVGTPQYLSPEQALGRGVDARSDLYSVGIMLFQLVTGRLPFDADSPLAIAYAHVQEQPVAPSAVNRALPPAVDALVARALKKNPNERFPSAEAMRDECLRVAASFQAAPPSIVPGAQTSSGAGVGSAVFPPVGQGTPAPTGPVQTPYQPTPSPGPNPYGTPAPAAHSPAYGYPQQAGYQTPAPAPYAQQQAAATPPPYNLTPSAQGSGSGSPGGKSNKPVIIGSIVVAVVAVGGLIGALLMNGGGDEDPEAGGGGSSTASVSASPSKAAGYRGPDKEKTIEKDKCTEPQESYNDPDKIQVPDFTFKYIGSVKECFNAAGWQMKVVEVDENTYGEGSVRDQFPTAGTDVDPENMPEIQLKVSTGNPPSE | failed
10 | MSLASLPISNFFTFNHQSTLFTKVKNFMGVKHIGDCMKALINGTIYTSFSPVKKVSGLVISNERVLYAGDSSTALRIAELAGGEIIDLKGKFVMPAFFDSHLHLDELGMSLEMVDLRGVKSMEELVERVKKGRGRIIFGFGWDQDELGRWPTREDLDVIDRPVFLYRRCFHVAVMNSKMIDLLNLKPSKDFDESTGIVRERALEESRKIINEKILTVKDYKHYIESAQEHLLSLGVHSVGFMSVGEKALKALFELEREGRLKMNVFAYLSPELLDKLEELNLGKFEGRRLRIWGVKLFVDGSLGARTALLSEPYTDNPTTSGELVMNKDEIVEVIERAKPLGLDVAVHAIGDKAVDVALDAFEEAEFSGRIEHASLVRDDQLERIKELKVRISAQPHFIVSDWWIVNRVGEERAKWAYRLKTLSSITKLGFSTDSPIEPADPWVSIDAAVNRYVVDPGERVSREEALHLYTHGSAQVTLAEDLGKLERGFRAEYIILDRDPLKEMKGIITITTDPNSSSVDKLAAALEHHHHHH | not failed
11 | MYEITATIVTYKNPDSVLLKAINSFLNTKLEVRLYIIDNSPTDYLKDISYDPRVEYIFMNSNNGFGAGHNVILRDPEKMGKYHLILNPDISFEEGTLEKLYDYMEGKLDVGNVMPKVIYPNGELQYLCKLLPTPKDWIVRMFLPIKSIKNRIDYNFEMKFADYDREMNIPYLSGCFMFLRKSVIEGIGVFDEGIFMYGEDTDLNRRIYRKYKTMYYPQVTITHHFEKGSHKSLRLLWIHVKAAIYYLNKWGWFFDKERSIINITVKQQYIRKLEHHHHHH | not failed
12 | MRLDRNPWHWRIWVCIAVLALWPRAASADTITPERIADALSKLDALAQGAVADGGVPGLAIAVVHDDEVIFLRGFGHREAGKPEAVDADTVFQIASLSKPVSATVVAALVSDGIVSWDSKVADLDPAFRLADPYPTSQLTVRDLFSHRSGLPGTAGDDLEDIGYDRAEILHRLRFVPPSSSFRAGYSYSNFGLTEGAVAAAMPTGKSWEEVAQEKLYRPLGMASTSSRHSDFVKHADRAALHIKVDGAWAAKIERDPDAQAPAGGVSSTARDLSQWVRLILGNGVYAGKTLIAADALDQTHVPLMTRGKNPVSGGESFYGLGWNVEFGRHGLSWGHAGAFSVGARTLVTIFPQDKLGIVIIANAFPTGVPEGLSDSFADLVFDGSVQKDWVKAWDGIYAGMFGPVVEAAKATYAAPPSPARPARPASAYAGRYANDFFGDAVVASAGDGLVLKVGPHGARSYSLAHFDGDLFLTYPDAETPDRPTGVSFVVGPDGKASAMTIGFLDDNHLGTLRRVGD | failed
13 | MEEKAKMRRLSTWKLKLRMFLATVLLFGLIYAILMVVGSILGLGGPLFYALLGFGVIFLQYLISPKIVELTMNVHYVSEAEAPRLHAMVDELARRAGIPKPMVGIAEIALPNAFAFGRTKADGRVCVTRGILNLLDEEELRAVLGHEISHIKHSDMIVMTLVSAVPLICYYIFWSTVFSRDDEANLVGIAALIAYFIGQLIVLFISRTREYYADQGSVEIGGQPHKLASALYKLVLRLSPVQQGRPETGRGCQGLLPE | failed
14 | MALIEGFRVRNYRALRDITLGRLSAEQQGDPLTPFTVVIGKNGVGKSTLFDAFGFVADCLSKDVESACDDKQRGGFERMRSLGTEESIRFDIYYREAKGERPITYELAINLDSSGRPFVESEVLKQRRKGQKHGRPYPFLRLHHGVGKVWAGEEAVETSSGEEDRAQEDVELTDLRQLGIATLGTLKEHPRIKRFRDFLKGWHLSYFHPDSARSIPSAGAQRHLDVHGENIGNVVQYMEREHKERFKTILDRIAAKIPGVHSIRTTVTQDKRVLLQFNDGAFNDPFYAGQMSDGTLKIFAYLLLMEDPEPPPFICIEEPENGLYHRLLDSLASELRSHATGKKNAPQIFVTTHQPYFVDALSTKEVWILEKGKNGFSTICRASDIDLVRNLVEEGLPLGGLWYGDYLDTK | failed
15 | MLFNSFEFMLLFLPIAVIGYFLLQKVNKNFAKLFLVGMSLYFYAYFEVKYLLLIGVSLFTNAFIGQQIIQKINQKTRKVFLIVGLVFNISLLGYFKYSDFFLDNINTLFGTDVPLLKLLLPLGISFITFQKIGFLVDCYKRELTKFNFIDFCLFVTFFPQLIAGPIVHHSKVLPQFQDESKRRPNIENITKGLYIFGIGLTKKVVIADSLAQWADFGFSNVNQLSTTDAWVSSLAYTLQLYFDFSGYCDMAIGAALLFNIILPINFFSPYKSLSIQDFWRRWHMTLGRFFTQYVYIPLGGSRKGQIRTYLNLFTIFLISGIWHGAGWTFVIWGVLHGLAIVIHRLFKNLGGKMPKFIAWILTMGFVHVTWVFFRATSVEDALTMLNRMFNVNYLHIQTALIQFRPETLTGVSIMDNLIYSICNLFPFQVTGDHFNFQTILYLAIGIAIVLFTKNSIEKLESFRPKPIYALALASMFILSLMYLNRVSSFLYFNF | failed
16 | IKHKQLIEQVMIYIEKHLAENITLQDIADELYISRNYLGQIFKKVVGESFKNYVTRLRMEKAKKMIQEGNFLIYEVSEKVGYVNPAYFTTMFKKYTGYTPRDLIQK | failed
17 | MRLRHLSDPDSLPALDKSFAIERPALGLAPDAPPVRILLLYGSLRARSFSRLAVEEAARLLQFFGAETRIFDPSDLPLPDQVQSDDHPAVKELRALSEWSEGQVWCSPERHGQITSVMKAQIDHLPLEMAGIRPTQGRTLAVMQVSGGSQSFNAVNTLRLLGRWMRMFTIPNQSSIAKAFQEFDAAGRMKPSPYYDRIADVMEELVRFTALVRPHREALTDRYSERKAAGHVIDEATDLSSIAIAPQPLPESETS | not failed
